Changes are numbered by the printed parent chain. Where no end group is shown, it is not given here. [ ]: non-standard residue; d: D form. pT = C[C@@H](OP(=O)(O)O)[C@H](N)C(=O)O
T1: Tau(pS404) peptide (human, phosphoserine at S404 of tau (peptide position 18))
T1 construct: also called TauS404 peptide; TauS404
T1 peptide: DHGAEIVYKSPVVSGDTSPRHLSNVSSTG

T2: AT270 peptide (pT181; Tau172-186) (human)
T2 peptide: PAKTPPAPK[pT]PPSSG

T3: AT8 peptide (amino acids 195-215 of tau) (human, phospho-peptide, phosphorylated sites not stated in the example; immobilized on streptavidin tips)
T3 peptide: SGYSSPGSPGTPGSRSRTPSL

B1: VY014 (antibody, V domains shown)
VH: EVQLVESGGGLVQPGGSLRLSCAASGFTFNNYDMHWVRQAAGKGLEWVSTIGAAGDTYYPGSVKGRFIISRENAKNSLYLQMNSLRAGDTAVYYCARAGETLEGATIGYYYGMDVWGQGTTVTVSS
VL: DILMTQSPLSLPVTPGEPASISCRSSQSLLHSNGYNYLDWYLQKPGQSPQLLIYLGSNRASGVPDRFSGSGSGTDFTLKFSRVEAEDVGLYYCMQALQIPLTFGGGTKVEIK
B2: VY011 (antibody, V domains shown)
VH: QVQLQESGPGLVKPSETLSLTCTVSGGSISNYYWTWIRQPAGKGLEWIGRVYTSGSANYNPSLKSRVTMSVDTSKNQFSLTLSSVTAADTAVYYCARDRGLYYWGQGTLVTVSS
VL: DIVMTQTPLSSLVTLGQPASISCRSSQSLVHSDGNTYLSWLQQRPGQPPRLLIYKISKRFFGVPDRFSGSGAGTDFTLKINRVEAEDVGIYYCMQATQFPLTFGGGTKVEIK
notes: also called VY0I1; VY0111 (misprints in the text)
B3: VY003 (antibody, V domains shown)
VH: EVQMVESGGGLVQPGGSLTLSCAASGFTFSSYRMNWVRQAPGKGLEWVSYISSSRSAIYYADSVKGRFTISRDNAKNSLYLQMNSLRDEDTAVYYCATLGIGYWGQGTLVTVSS
VL: B2 VL with L12P, K58N, F61S, N81T, A96V, L101R, G105Q, K112R
B4: VY020 (antibody, V domains shown)
VH: EVQLVESGGGLVQPGGSLRLSCAASGFTFSSYSMNWVRQAPGKGLEWISYISSSNSTIKYADSVKGRFTISRDNAKNSLYLQMNSLRDEDTAVYYCARRSLGDYWGQGTLVIVSS
VL: EIVLTQSPATLSLSPGERATLSCRASQSVSSYLAWYLQKPGQAPRLLIYDVSNRATGIPARFSGSGSGTDFTLTISRLEPEDFAVYYCQQRRNWPYTFGQGTKLEIK

Columns and labels:
Tau(pS404) peptide = biological target: T1, Tau(pS404) peptide; assay: competitive ELISA on TauS404 peptide, competitor AC04 peptide
[1] = biological target: T4, enriched paired helical filament tau protein (ePHF; sarkosyl insoluble tau) (human, UniProt P10636 2-758); assay: direct ELISA, ePHF coated
T4 sequence (P10636 other isoform, or with tags, fused parts or gaps limits assumed): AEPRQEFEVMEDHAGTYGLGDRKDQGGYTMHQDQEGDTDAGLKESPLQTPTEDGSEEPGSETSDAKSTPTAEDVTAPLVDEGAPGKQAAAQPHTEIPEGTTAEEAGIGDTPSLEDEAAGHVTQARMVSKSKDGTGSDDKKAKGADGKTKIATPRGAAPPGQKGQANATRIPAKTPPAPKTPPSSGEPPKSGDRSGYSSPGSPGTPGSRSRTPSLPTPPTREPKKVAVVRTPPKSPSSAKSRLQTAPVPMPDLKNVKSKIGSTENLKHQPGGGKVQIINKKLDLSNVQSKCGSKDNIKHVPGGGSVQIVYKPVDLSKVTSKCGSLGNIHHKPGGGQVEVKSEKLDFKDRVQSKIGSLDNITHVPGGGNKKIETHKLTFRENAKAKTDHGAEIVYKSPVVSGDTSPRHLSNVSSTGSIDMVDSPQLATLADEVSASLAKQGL
Method: (§1) A set of recombinant human IgG1 antibodies were prepared with clone-specific variable domain pairs selected from those presented in Table 1 and human IgG1 constant domains. These candidate antibodies were analyzed for binding to ePHF and specificity for ePHF over wild type tau by direct ELISA.
(§2) For direct ePHF and wildtype tau ELISA, plates were first coated with ePHF or wild type tau. Antigen solutions were prepared in PBS and 50 μL were pipetted into each well. Plates were covered and incubated for one hour at 37° C. or overnight at 4° C. Plates were then washed and blocked by addition of 150 μl of blocking buffer to each well and incubated one hour at room temperature. Plates were then washed before addition of serially diluted candidate antibody samples prepared in blocking buffer. Detection of candidate antibody binding was carried out by washing plates and adding a solution of enzyme-labeled secondary antibody in blocking buffer to each well. Secondary antibody binding was detected by addition of substrate and spectrophotometric analysis of resulting reaction product.

iPHF [2] = biological target: T5, iPHF (UniProt P10636-8 2-441, limits assumed); assay: BLI (Octet), antibody on biosensor tip, iPHF in solution
T5 construct: also called iPHF tau
T5 sequence (P10636 other isoform, or with tags, fused parts or gaps limits assumed): as above
Method: Anti-human tau antibodies were assessed for affinity for iPHF by Octet (ForteBio, Menlo Park, CA) analysis. A set of recombinant human IgG1 antibodies were prepared with clone-specific variable domain pairs selected from those presented in Table 1 and human IgG1 constant domains. Candidate antibodies were immobilized on biosensor tips (ForteBio) in kinetic buffer (ForteBio). Biosensor tips were then washed before introduction of a solution of iPHF in kinetic buffer for analysis of association and dissociation with candidate antibodies.

wild type tau = biological target: T6, wild type tau (human, UniProt P10636 2-758); assay: direct ELISA, wild type tau coated
T6 construct: also called WT
T6 sequence (P10636 other isoform, or with tags, fused parts or gaps limits assumed): as above
Method: as §1, §2

[3] = biological target: T4, enriched paired helical filament tau …; assay: cell-based or functional assay
[4] = biological target: T2, AT270 peptide (pT181; Tau172-186); assay: one point ELISA
[5] = biological target: T4, enriched paired helical filament tau …; assay: follow up selectivity analysis, ePHF over wild-type tau; method not stated
iPHF [6] = biological target: T5, iPHF; assay: SPR (Biacore 8K)
iPHF [7] = biological target: T5, iPHF; assay: follow up selectivity analysis, iPHF over wild-type tau; method not stated
[8] = biological target: T3, AT8 peptide (amino acids 195-215 of tau); assay: BLI (Octet), phospho-peptide on streptavidin tips
Method: Briefly, phospho-peptides were immobilized on streptavidin biosensor tips and the binding ability of each antibody was assessed using an eight-point concentration gradient.

[9] = biological target: Tau191-214 phospho-peptide (pS202) (human, phosphoserine at S202 of tau (peptide position 12); SCBio-4PEG label); assay: one point ELISA
Sequence of Tau191-214 phospho-peptide (pS202) (human, phosphoserine at S202 of tau (peptide position 12); SCBio-4PEG label) (peptide, as listed by the source): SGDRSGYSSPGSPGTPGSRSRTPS
Text: (§3) One-point ELISA was used to determine differential binding based on the individual phosphorylation patterns of each peptide. OD values (450 nm) were collected (as shown in Table 13), where a stronger positive signal is shown as a higher OD value, which is indicative of increased binding.

[10] = biological target: Tau191-214 phospho-peptide (pT205) (human, phosphothreonine at T205 of tau (peptide position 15); SCBio-4PEG label); assay: one point ELISA
Text: as §3

[11] = biological target: T7, pS199-old (SCBio-4PEG-Peptide, Tau191-214) (human, phosphoserine at S199 of tau by the row label; SCBio-4PEG label); assay: one point ELISA
T7 construct: The suffix -old is not explained
Text: as §3

[12] = biological target: Tau191-214 phospho-peptide (pS199/pT205) (human, phosphoserine at S199 and phosphothreonine at T205 of tau (peptide positions 9, 15); SCBio-4PEG label); assay: one point ELISA
Text: as §3

[13] = biological target: T8, Tau191-214 phospho-peptide (pS199) (human, phosphoserine at S199 of tau (peptide position 9); SCBio-4PEG label); assay: one point ELISA
T8 construct: also called pS199 peptide
Text: as §3

[14] = biological target: Tau191-214 phospho-peptide (pS199/pS202) (human, phosphoserine at S199 and S202 of tau (peptide positions 9, 12); SCBio-4PEG label); assay: one point ELISA
Text: as §3

[15] = biological target: T8, Tau191-214 phospho-peptide (pS199); assay: BLI

| Binder | binding result (Tau(pS404) peptide) | EC50 [1] | Kd (iPHF [2]) | EC50 (wild type tau) | Average IC50 (nM) for inhibiting tau aggregation after immunodepletion of ePHF (tau RD Biosensor cells) [3] | binding result [4] | selectivity ePHF:WT [5] | Kd (iPHF [6]) | selectivity iPHF:WT (iPHF [7]) | Kd [8] | OD (450 nm) [9] | OD (450 nm) [10] | OD (450 nm) [11] | OD (450 nm) [12] | OD (450 nm) [13] | OD (450 nm) [14] | binding result [15] | binding result [8] |
| --- | --- | --- | --- | --- | --- | --- | --- | --- | --- | --- | --- | --- | --- | --- | --- | --- | --- | --- |
| B1 | binds | 6.23 nM | 5.3 nM | 0.04 nM | – | – | – | – | – | – | – | – | – | – | – | – | – | – |
| B2 | – | 0.03 nM | 2 nM | – | 18.1 nM | no binding | > 137 fold | 0.238 nM | > 108 fold | 0.0089 nM | 0.06 OD450 | 0.06 OD450 | – | – | – | – | – | – |
| B3 | – | 0.06 nM | 4.6 nM | – | – | – | – | – | – | 0.0124 nM | 0.065 OD450 | 0.06 OD450 | 0.062 OD450 | 0.119 OD450 | 0.065 OD450 | 0.082 OD450 | – | – |
| B4 | – | – | 2.6 nM | – | – | no binding | – | – | – | – | – | – | – | – | – | – | no binding | no binding |
